In patent US20220177604A1 one finds Ratio OD450 pH 7.4/pH 6 data, which are given here for 17 molecules.

This experiment concerns the target recombinant Motavizumab human IgE (rMota-hIgE) (human) (UniProt P01854). As to the kind of experiment: hIgE binding ELISA. Background: ELISA stands for enzyme-linked immunosorbent assay.

Where a chain is given by its changes, count along the chain named.

Sequence of recombinant Motavizumab human IgE (rMota-hIgE) (human) (P01854 other isoform, or with tags, fused parts or gaps limits assumed, form in doubt): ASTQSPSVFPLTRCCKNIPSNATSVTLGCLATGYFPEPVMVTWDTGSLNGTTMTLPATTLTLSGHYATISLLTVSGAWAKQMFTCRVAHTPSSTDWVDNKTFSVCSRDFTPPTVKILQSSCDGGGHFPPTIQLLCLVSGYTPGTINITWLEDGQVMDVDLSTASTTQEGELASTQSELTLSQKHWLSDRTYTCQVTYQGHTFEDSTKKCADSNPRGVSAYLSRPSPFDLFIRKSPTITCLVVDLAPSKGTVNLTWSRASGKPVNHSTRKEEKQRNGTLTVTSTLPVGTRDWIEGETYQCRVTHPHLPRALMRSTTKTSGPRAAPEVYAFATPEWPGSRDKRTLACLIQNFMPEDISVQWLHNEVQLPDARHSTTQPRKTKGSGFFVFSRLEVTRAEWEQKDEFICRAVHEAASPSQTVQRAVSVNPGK

B1: CL-2C mAb 1 (antibody, V domains shown)
VH: QVQLVQSGAEVMKPGSSVKVSCKASGYTFSWYWLEWVRQAPGHGLEWMGEIDPGTFTTHYNEKFKARVTFTADTSTSTAYMELSSLRSEDTAVYYCARFSHFSGSHYDYFDYWGQGTLVTVSS
VL: EIVMTQSPATLSVSPGERATLSCRASQHIGTNIHWYQQKPGQAPRLLIYYASESISGIPARFSGSGSGTEFTLTISSLQSEDFAVYYCQQSWSHPTTFGGGTKVEIK
Consider B1, for which the Ratio OD450 pH 7.4/pH 6 was determined as 6.94.

B2: CL-2C mAb 11 (antibody, V domains shown)
VH: B1 VH
VL: B1 VL with H28S, Y50H
Turning to B2, the Ratio OD450 pH 7.4/pH 6 worked out at 5.9.

B3: CL-2C mAb 13 (antibody, V domains shown)
VH: B1 VH with W33H, H59N
VL: B1 VL with H28S, Y50H
B3: the Ratio OD450 pH 7.4/pH 6 is 1.28.

B4: CL-2C mAb 9 (antibody, V domains shown)
VH: B1 VH with W33H, H59N, S105H, H106N
VL: B1 VL with H28S, Y50H, Q89H, W92D, H94W
With B4, the Ratio OD450 pH 7.4/pH 6 worked out at 1.45.

B5: CL-2C mAb 15 (antibody, V domains shown)
VH: B1 VH with H59N, H106N
VL: B1 VL with H28S, Y50H
Regarding B5, the Ratio OD450 pH 7.4/pH 6 was 4.07.

B6: CL-2C mAb 4 (antibody, V domains shown)
VH: B1 VH with W33H, H59N, S105H, H106N
VL: B1 VL
Take B6: the Ratio OD450 pH 7.4/pH 6 amounted to 5.26.

B7: CL-2C mAb 14 (antibody, V domains shown)
VH: B1 VH with W33H, H59N, S105H, H106N
VL: B1 VL with H28S, Y50H
Consider B7, for which the Ratio OD450 pH 7.4/pH 6 is 1.53.

B8: CL-2C mAb 17 (antibody, V domains shown)
VH: B1 VH with W33H, H59N, H106N, Y107H
VL: B1 VL with H28S, Y50H, W92D
Consider B8, for which the Ratio OD450 pH 7.4/pH 6 amounted to 1.03.

B9: CL-2C mAb 6 (antibody, V domains shown)
VH: B1 VH
VL: B1 VL with H28S, Y50H, Q89H, W92D, H94W
As to B9, the Ratio OD450 pH 7.4/pH 6 was determined as 10.2.

B10: CL-2C mAb 16 (antibody, V domains shown)
VH: B1 VH
VL: B1 VL with H28S, Y50H, W92D
For the molecule B10, the Ratio OD450 pH 7.4/pH 6 came to 2.24.

B11: CL-2C mAb 2 (antibody, V domains shown)
VH: B1 VH with W33H, H59N, H106N, Y107H
VL: B1 VL
As for B11, the Ratio OD450 pH 7.4/pH 6 was determined as 7.11.

B12: CL-2C mAb 10 (antibody, V domains shown)
VH: B1 VH with H59N, H106N
VL: B1 VL with H28S, Y50H, Q89H, W92D, H94W
As to B12, the Ratio OD450 pH 7.4/pH 6 was 2.77.

B13: CL-2C mAb 12 (antibody, V domains shown)
VH: B1 VH with W33H, H59N, H106N, Y107H
VL: B1 VL with H28S, Y50H
Take B13: the Ratio OD450 pH 7.4/pH 6 was determined as 1.54.

B14: CL-2C mAb 8 (antibody, V domains shown)
VH: B1 VH with W33H, H59N
VL: B1 VL with H28S, Y50H, Q89H, W92D, H94W
B14: the Ratio OD450 pH 7.4/pH 6 amounted to 1.12.

B15: CL-2C mAb 3 (antibody, V domains shown)
VH: B1 VH with W33H, H59N
VL: B1 VL
In the case of B15, the Ratio OD450 pH 7.4/pH 6 was found to be 6.44.

B16: CL-2C mAb 7 (antibody, V domains shown)
VH: B1 VH with W33H, H59N, H106N, Y107H
VL: B1 VL with H28S, Y50H, Q89H, W92D, H94W
For B16, the Ratio OD450 pH 7.4/pH 6 came to 1.43.

B17: CL-2C mAb 5 (antibody, V domains shown)
VH: B1 VH with H59N, H106N
VL: B1 VL
Regarding B17, the Ratio OD450 pH 7.4/pH 6 is 0.73.
